Reference: PMC3916413

Target: T1, endogenous Asc of mouse macrophages (mouse (endogenous in BMDM)), Q9EPB4
T1 chain: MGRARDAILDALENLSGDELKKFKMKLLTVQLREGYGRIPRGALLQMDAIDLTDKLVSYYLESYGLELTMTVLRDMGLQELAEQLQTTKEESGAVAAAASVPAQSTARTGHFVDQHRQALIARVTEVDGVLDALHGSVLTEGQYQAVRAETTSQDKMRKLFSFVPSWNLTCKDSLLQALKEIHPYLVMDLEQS
Test: cross-linking; insoluble fraction (pellet) of BMDM lysates cross-linked with 2 mM disuccinimidyl suberate for 30 min, immunoblot with anti-Asc; cells infected with WT Shigella or Salmonella, T3SS-deficient or fliA mutants, nucleofected with MxiI, or with siRNA to Naip2 or Naip5
Conditions: remark: other sources report otherwise

B1: endogenous Asc of mouse macrophages, Q9EPB4 1-193 (natural protein)
chain: T1 chain
  stoichiometry N: 2
